The test system of this experiment is Human umbilical vein endothelial cells (HUVEC). The experiment can be described thus: [3H]thymidine incorporation, HUVEC growth in vitro. Format: cell-based. The following applies: increasing concentrations, FIG. 6C. As to the method: To determine if the '362 peptide or the '367 peptide affects the in-vitro growth of cells, the '362 peptide was tested in culture dishes for the ability to inhibit the growth of prostrate tumor cells or of lung tumor cells. Radioactive hydrogen (^3 H) was attached to thymidine([^3H]hymidine), which is one of the components of DNA. Cells that grow in the presence of [^3H]thymidine incorporate the radioactive thymidine into their DNA.
Human umbilical vein endothelial cells (HUVEC) were also grown in increasing concentrations of the '362 peptide or '367 peptide in the presence of radioactive thymidine. HUVEC cells are commonly used to test for angiogenic regulation because these cells respond to angiogenic inhibitors in a fashion similar to the cells in the human body that form new blood vessels. […] Research protocols designed to elucidate the reasons for this unexpected difference in response of HUVEC to endostatin protein and to '362 peptide are set out in the Research Plan, Phoenix Pharmaceuticals, Inc., 2438 Wyandotte Street, Mountain View, Calif. 94043, (1999) which is hereby incorporated by reference.

These results are taken from patent US6835806B2, “Cell growth regulation system” (Phoenix Pharmaceuticals, Inc., priority 2000, dated 2004).

B1: endostatin protein: protein of about 20 kDa with a zinc-binding domain, inhibitor of endothelial cell growth (FIG. 5) (protein, UniProt P39060 1572-1754, looked up)
Endostatin: HSHRDFQPVLHLVALNSPLSGGMRGIRGADFQCFQQARAVGLAGTFRAFLSSRLQDLYSIVRRADRAAVPIVNLKDELLFPSWEALFSGSEGPLKPGARIFSFDGKDVLRHPTWPQKSVWHGSDPNGRRLTESYCETWRTEAPSATGQASSLLGGRLLGQSAASCHHAYIVLCIENSFMTASK
modifications: Endostatin
Consider B1, for which the “HUVEC growth rate (radioactive thymidine)” value was “dramatic reduction in HUVEC growth”.
